Experiment [1] has as its system GFP+F10-snail+ tumor cells. Nature of the experiment: In vivo drug efficacy of each anti-FSTL1 antibody clone, GFP+F10-snail+ tumor model (Example 32). The arrangement: species or system mouse. Conditions: intraperitoneal 10 mg/kg on days 4 and 7; vs control antibody. The procedure: • Day 0: transplantation of GFP+F10-snail+ tumor cells (3×10^5 cells subcutaneously & 2×10^4 cells intravenously) • Day 4: intraperitoneal administration of the antibody (first dose, 10 mg/kg) • Day 7: intraperitoneal administration of the antibody (second dose, 10 mg/kg)
Subcutaneous tumor was measured 4, 7, 10, 14, 17, 20, and 23 days after tumor cell transplantation.
Experiment Group (n=5) Control IgG (anti-DNP mAb) • #6-55 • #7 • #10 • #13 • #33
• Day 0: transplantation of GFP+F10-snail+ tumor cells (3×10^5, cells subcutaneously & 2×10^4 cells intravenously) • Day 4: intraperitoneal administration of the antibody (first dose, 10 mg/kg) • Day 7: intraperitoneal administration of the antibody (second dose, 10 mg/kg)

Experiment [2] deals with mouse melanoma cells (B16-F10) forced to express Snail. Briefly: In vivo, intraperitoneal administration, Snail-positive B16-F10 bone metastasis model (Example 18). The arrangement: species or system C57BL/6N mice. The settings on record: intraperitoneal 10 mg/kg on days 5 and 10; day 14. The text has this:
1. Experiment Group (n=5) • 1. No treatment (0.9% NaCi as a sham) • 2. Control IgG (anti-DNP) • 3. Anti-FSTL1 Clone #6-55 • 4. Anti-FSTL1 Clone #7-34 • 5. Anti-FSTL1 Clone #8-1 […]
• Effects on the growth of subcutaneous tumor (calculation of tumor volume by tumor size measurement): measured 7, 11, and 14 days after tumor implantation (FIG. 12B) • Effects on bone metastasis (GFP-positive tumor cells in bone marrow or the spleen) (FIGS. 12A and 12C) • Effects on MSC expansion (CD45-negative cells in bone marrow or the spleen) (FIGS. 12A and 12C) • Effects on weight loss (FIG. 12A) • Effects on the expansion of immunosuppressive Treg cells (CD4-positive and Foxp3-positive cells in the spleen) (FIG. 12C) • Other immunosuppressive properties (FIG. 12C)
In Example 17, the antibody was administered into tumor according to the purpose of “inhibiting metastasis from a primary focus to bone” as previously conducted by the present inventors. […] Specifically, antitumor effects and immunosuppression-mitigating effects were comparatively analyzed by the intraperitoneal administration (systemic administration) of the anti-FSTL1 antibody using bone metastasis models in which mouse melanoma cells (B16-F10) forced to express Snail were subcutaneously and intravenously transplanted in C57BL/6N mice. […]

For another experiment, the system named is mouse melanoma B16-F10. Nature of the experiment: In vivo melanoma B16-F10 model (Example 22). Conditions: intraperitoneal 10 mg/kg on days 3 and 6. The arrangement: species or system C57BL/6 mice. As to the method: The drug efficacy of the anti-FSTL1 antibody was evaluated according to Examples 17 to 20 using other cancer-bearing models of C57BL/6 mice of the same strain as in Snail-positive tumor bone metastasis models. The “mouse melanoma B16-F10” is a parent line of the cell line forced to express Snail, which was transplanted in the bone metastasis models used in the preceding tests.
1. Experiment Group (n=5) 1. Mouse melanoma B16-F10+control IgG (anti-DNP mAb) 2. Mouse melanoma B16-F10+anti-FSTL mAb (#6-55)
• Day 0: transplantation of tumor cells (1×10^6 cells subcutaneously & 1×10^6 cells intravenously) • Day 3: intraperitoneal administration of the antibody (first dose, corresponding to 200 μg/mouse=10 mg/kg) • Day 6: intraperitoneal administration of the antibody (second dose, corresponding to 200 μg/mouse=10 mg/kg) • Day 15 various immunological assays
• Effects on the growth of subcutaneous tumor (calculation of tumor volume by tumor size measurement): measured 6, 10, and 14 days after tumor implantation (FIG. 16A) • Effects on weight loss (FIG. 16B)

In another experiment the test system is mouse lymphoma EL4. Nature of the experiment: In vivo, mouse lymphoma EL4 (Example 23). The settings on record: intraperitoneal 10 mg/kg on days 3 and 6, vs control antibody. As to the method: The drug efficacy of the anti-FSTL1 antibody was evaluated according to Examples 17 to 20 using mouse lymphoma EL4, which is a cancer type having enhanced FSTL1 expression.
1. Experiment Group (n=5) • 1. Mouse lymphoma EL4+control IgG (anti-DNP mAb) • 2. Mouse lymphoma EL4+anti-FSTL1 mAb (#6-55)
• Day 0: transplantation of tumor cells (1×10^6 cells subcutaneously & 1×10^6 cells intravenously) • Day 3: intraperitoneal administration of the antibody (first dose, corresponding to 200 μg/mouse=10 mg/kg) • Day 6: intraperitoneal administration of the antibody (second dose, corresponding to 200 μg/mouse=10 mg/kg) • Day 15: various immunological assays
• Effects on the growth of subcutaneous tumor (calculation of tumor volume by tumor size measurement): measured 3, 6, and 10 days after tumor implantation

We go through 3 molecules from US20180021429A1, “ANTICANCER AGENTS OR ANTIMETASTATIC AGENTS USING FSTL1 AND COMBINATION DRUG THEREOF” (PHARMA FOODS INTERNATIONAL CO., LTD., priority 2015, published 2018).

B1: #33: chicken-mouse chimeric anti-FSTL1 antibody clone; variable regions SEQ ID NO: 823 (light), 825 (heavy) (antibody, V domains shown)
VH: AVTLDESGGGLQTPGGGLSLVCKASGFTFSSFNMNWVRQAPGKGLEYVAEISGTGSSTYYGSAVKGRATISRDNGQSTVRLQLNNLRAEDTATYFCARGDGAYSIDAWGHGTEVIVSS
VL: ASTQPSSVSANPGETVEITCSGDSSYYGWFQQKSPGSAPVTVIYDNTNRPSDIPSRFSGSKSGSTATLTITGVRAEDEAVYYCGGYDSSTYDGIFGAGTTLTVL
modifications: mouse constant regions
Regarding B1, the “mouse survival period (life-prolonging effect)” value in experiment [1] was “therapeutic effects equal to or higher than those of #6-55”.

B2: #6-55: chicken-mouse chimeric anti-FSTL1 antibody clone; variable regions SEQ ID NO: 783 (light), 785 (heavy) (antibody, V domains shown)
VH: AVTLDESGGGLQTPGGALSLVCKGSGFTFTSVTMQWVRQAPGKGLEWVASVCSGSSTYYAPAVKGRATISRDNGQSTVRLQLSNLRPEDTGTYYCAKIAGRARWSCTSAAYNIDAWGHGTEVIVSS
VL: ASTQPSSVSAIPGETVKITCSGGGNNYGWYQQRSPGSAPVTVIYYNDNRPSNIPSRFSGSTSGSTSTLTITGVQADDEAIYYCGSWDSNTDSGIFGAGTTLTVL
modifications: mouse constant regions
As to B2, the anti-weight loss effect entry in experiment [2] is recorded as “an anti-weight loss effect (right graph of FIG. 12A) was confirmed”. Moreover, the weight loss result in the experiment with mouse melanoma B16-F10 was “suppressive activity against weight loss was also exhibited”. Also, the subcutaneous tumor growth result in the experiment on mouse melanoma B16-F10 (vs control antibody) is listed as “strongly suppressed”. Further, in the experiment on mouse lymphoma EL4, the subcutaneous tumor growth result is given as “strongly suppressed”. For the same molecule, in experiment [1], the “mouse survival period (life-prolonging effect)” value is on record as “statistically significant life-prolonging effect” and the “suppressive activity against subcutaneous tumor growth” value was “statistically significant suppressive activity”.

B3: #8-1: chicken-mouse chimeric anti-FSTL1 antibody clone; variable regions SEQ ID NO: 791 (light), 793 (heavy) (antibody, V domains shown)
VH: AVTLDESGGGLQTPGGALSLVCKGSGFTFSSFNMFWVRQAPGKGLEWVAGIGKDGVPKYGAAVDGRATISKDNGQSTMRLQLNNLRAEDTGTYFCAKAAGGCSYDWCGIYAGDIDTWGHGTEVIVSS
VL: ASTQPSSVSANPGEAVKITCSGGSGSYYGWYQQKSPGSAPVTVIYNNNQRPSDIPSRFSGSKSGSTATLTITGVQAEDEAVYFCGGYDSSSGHGGIFGAGTTLTVL
modifications: mouse constant regions
For B3, the anti-weight loss effect entry in experiment [2] is given as “an anti-weight loss effect (right graph of FIG. 12A) was confirmed”.
